The test concerns the target cynomolgus αV (HEK-293 cells transfected with cynomolgus αV alone) (cynomolgus). The test can be described thus: FACS, HEK-293 transfected with cynomolgus αV. A general note: A flow cytometer gives signals particle by particle.

cynomolgus αV (HEK-293 cells transfected with cynomolgus αV alone) (cynomolgus), sequence (chain, as listed by the source): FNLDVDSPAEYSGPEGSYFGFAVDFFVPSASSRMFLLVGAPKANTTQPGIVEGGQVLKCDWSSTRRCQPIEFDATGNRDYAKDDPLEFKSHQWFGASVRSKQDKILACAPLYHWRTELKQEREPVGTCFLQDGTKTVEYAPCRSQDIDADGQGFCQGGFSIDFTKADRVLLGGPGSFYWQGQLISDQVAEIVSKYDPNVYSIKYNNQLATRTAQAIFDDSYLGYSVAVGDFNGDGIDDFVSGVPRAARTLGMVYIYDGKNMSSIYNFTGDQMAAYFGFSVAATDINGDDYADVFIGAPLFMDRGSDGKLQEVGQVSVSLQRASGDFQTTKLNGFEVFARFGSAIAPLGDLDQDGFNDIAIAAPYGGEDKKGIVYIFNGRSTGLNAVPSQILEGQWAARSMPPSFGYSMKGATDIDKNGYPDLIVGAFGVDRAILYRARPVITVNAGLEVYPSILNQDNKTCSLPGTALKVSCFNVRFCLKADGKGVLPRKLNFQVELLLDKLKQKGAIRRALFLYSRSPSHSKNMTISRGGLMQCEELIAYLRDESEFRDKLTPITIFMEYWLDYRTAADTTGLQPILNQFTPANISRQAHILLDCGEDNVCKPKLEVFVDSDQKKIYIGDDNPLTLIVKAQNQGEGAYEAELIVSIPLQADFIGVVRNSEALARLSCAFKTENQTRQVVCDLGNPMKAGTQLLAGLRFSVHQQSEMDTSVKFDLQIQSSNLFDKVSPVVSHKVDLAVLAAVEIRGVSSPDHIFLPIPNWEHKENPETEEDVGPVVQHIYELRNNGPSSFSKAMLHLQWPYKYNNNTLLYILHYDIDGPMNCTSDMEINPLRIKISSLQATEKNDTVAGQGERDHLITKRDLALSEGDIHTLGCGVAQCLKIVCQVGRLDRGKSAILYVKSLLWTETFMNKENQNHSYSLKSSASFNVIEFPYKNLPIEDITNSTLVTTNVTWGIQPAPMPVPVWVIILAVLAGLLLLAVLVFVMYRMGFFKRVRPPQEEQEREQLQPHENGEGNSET

B1: sc 133 (antibody, V domains shown)
VH: QVQLVQSGAEVKKPGASVKVSCKASGYTFTGYYMHWVRQAPGQGLEWMGWINPKSGDTNYAQKFQGRVTLTRDTSTSTAYMELSRLRSDDTAVYYCARRLDVWGQGTTVTVSS
VL: QSVLTQPPSVSAAPGQKVTISCSGSSSNIGNNYVSWYQQLPGTAPKLLIYDNNKRPSGIPDRFSGSKSGTSATLGITGLQTGDEADYYCGTWNSSLSAGYVFGTGTKVTV
For the molecule B1, the percent of cells shifted came out at 5%.

The values above are taken from patent US20080057063A1.
